Assay: yeast display, Sf9 membrane polyspecificity reagent, FACS + sequencing; frameworks hold sequencing errors
Procedure, shortened: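 Nanobodies came from a synthetic yeast display library in Saccharomyces cerevisiae BJ5465, induced with galactose for 36–48 hours and stained for 1 hour at 4 °C with 10% biotinylated, detergent-solubilized Sf9 membrane reagent. Cells were enriched on streptavidin microbeads and then FACS-sorted, with low and high (top ~1%) gates set on anti-HA fluorescence for expression and streptavidin fluorescence for reagent binding. Each polyreactivity label reflects the gate a clone came from. Genes were amplified by colony PCR, sequenced by MiSeq 2 × 250 and filtered by CDR length.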
In the case of “QDQLVESGGGLVQAGGSLRLSSAASGFTFAHYARGWYRQAPGKERELVAAISGSGSSTYYADSVKGRFTISRDNAKNTVYLQMNSLKPEDTAVYYCNVRWYFLYDYWGQGTQVTVSS”, the “polyreactivity (PSR sort gate)” value is reported as “low polyreactivity”.
With “QDQLVESGGGLVQAGGSLRLSSAASGRIFKWNAMGWYRPAPGTERQLVAAIRWSGTSTYADSVKGRFTISRDNAKNTVYLHMNSLKPEDTAVYYCAAQDVSAPGWWLHYWGQGTQVTVSS” the “polyreactivity (PSR sort gate)” value was “low polyreactivity”.
With “QDQLVESGGGLVQAGGSLRLSSAGSGSIFFSYAMGWYRQAPGKEREFVAAINSDDASTYADSVKGRFTISRDNAKNTVYLQMNSLKPEDTAVYYCAASFLWSWYDYWGQGTQVTVSS” the “polyreactivity (PSR sort gate)” value was “low polyreactivity”.
For “QDQLVESGGGLVQAGGSLRLTCAASGFTIWYYAMGWYRQAPGKERELVAAISSVSSTKYADSVKGRFTISRDNAKNTVYFQMNSLKPEDTAVYYCAADIVRYWRHGFGWRRYDYWGQGTQVTVSS”, the “polyreactivity (PSR sort gate)” value was “high polyreactivity”.
In the case of “QDQLVESGGGLVQAGGSLRRSCAASGFTFFIYAMGWYRQAPGKEREFVAAITGSGGSTYYADSVKGRFTISRDNAKNTVYLQMNRLKPEDTAVYYCNKLSYGRSGYWGQGTQVTVSS”, the “polyreactivity (PSR sort gate)” value is reported as “high polyreactivity”.
With “QDQLVESGGGLVQAGGSLSLSCAASGSIIPNYAMGWYRQAPGKERELVAAISSSGGRTYYADSVKGRFTISRDNAKNTVYLQMNCLKPEDTAVYYCAADTYTSAQHEKYDYWGQGTQVTVSS” the “polyreactivity (PSR sort gate)” value was “low polyreactivity”.
In the case of “QDQLVESGGGLVQAGGTLRLRCAATGSTVYPTYAMGWYRQAPGKEWELVATITGSGGYTYYADSVKGRFTISRDNAKNTVYLQINSLKPEDTAVYYCAADRWYSRYTRYGYRGQGTQVTVSS”, the “polyreactivity (PSR sort gate)” value is reported as “low polyreactivity”.
For “QDQLVESGGGLVQARGSLRLICSASGFIISDYAMGWSRQAPGEERELVAVITWRSGSTYYADSVKGRFTISRDNAKNTVYLQMNSLKPEDTAVYYCAARYYRNYSQGRRLGYNYWGQGTQVTVSS”, the “polyreactivity (PSR sort gate)” value was “high polyreactivity”.
For “QDQLVESGGGLVQAVGSLRLSCAASGRIFVYNAMGGYRQAPGKEREFVATITSSGGRTYYADSVKGRFTISRDNSKNTVYLQMNSLKPEDTAVYYCAARPQNNGRNPVYRYNYWGQGTQVTVSS”, the “polyreactivity (PSR sort gate)” value was “high polyreactivity”.
For “QDQLVESGGGLVQEGGSLRLICGASGFIFPTNAMGWYRPAPGKERELVAAISRSGGTTNYADSVKGRFTISRDNAKNTVYLQRNSLKPEDTAVYYCNRGWATWHGPDDYWGQGTQVTVSS”, the “polyreactivity (PSR sort gate)” value was “high polyreactivity”.
With “QDQLVESGGGLVQEGGSLRLSCAASGRTFISKVMGWYRQAPGKERELVAAISGSSGSTRYADSVKGRFTISRDYAKNTVYLQMNSLKPEDTAVYYCAPRAPWPKWGYYYWGLGTQVTVSS” the “polyreactivity (PSR sort gate)” value was “high polyreactivity”.
With “QDQLVESGGGLVQGGGSLRLSCAGSGFTFSRYAMGSYRQAPGKERELVAAITRRRGRTYYADSVKGRFTISLDNAKNTVYFKMNSLYPEDTAVYYCNTDAYRLGYDYWGQGTQVTVSS” the “polyreactivity (PSR sort gate)” value was “high polyreactivity”.
With “QDQLVESGGGVVQAGGSLRLSCAASGSTFEYNAMGWYRQAPGKERELVASSTNYADSVKGRFTISRDNAKNTVYLQMNSLKPEDTAVYYCGREQGVNRNHDYWGQGTQVTVSS” the “polyreactivity (PSR sort gate)” value was “low polyreactivity”.
In the case of “QDQLVESGRGLVQAGGSLRLSCAASGINIPVYAMGWYRKAPRKERELLAAISSGGSTYYADSVKGRFTISRDNAKNTVYLQMNSLKPEDTAVYYCAAATRSAKYRFGYWGQGTQVTVSS”, the “polyreactivity (PSR sort gate)” value is reported as “high polyreactivity”.
For “QDQLVESGRGLVQEGGSLRLSCAASGSIFWSNGMGWYRQAPGKERELVATISSSGSDTYYAASVKGRFTISRDTAKNTVYFQMNSLKPEDTAVYYCNVYSIWGTYDYRGQGTQVTVSS”, the “polyreactivity (PSR sort gate)” value was “low polyreactivity”.
For “QDQLVESGVGFVQAGVSLRLSSAASGSIFYLNAMGWYRQAPGKERELVAAITNGGSTYADSVKGRFTISRDNAKNTVYLPMNSLKPEDPAVYYCATRSWELGDYLGQGTQVTVSS”, the “polyreactivity (PSR sort gate)” value was “low polyreactivity”.
In the case of “QDQLVESRGGLVQAGGSLRLSCAASGFTFYRYAMGWYRQAPGKERELVAAITWRGTSTYYADSVKGRFTISRDNAKNTVYLQMNSLKPEDTAVYYCNADRGYKYDYWGQGTQVTVSS”, the “polyreactivity (PSR sort gate)” value is reported as “high polyreactivity”.
For “QDQLVESRGGLVQAGGSLRLSCAASGSIFIENTMGWYRQAPGKERELVAAISGSVGRTFYADSVKGRFTISRDNAKNTVYLQMNSLKPEDTAVYYCAAVRRTSPGWVYYWGQGTRVTVSS”, the “polyreactivity (PSR sort gate)” value was “high polyreactivity”.
For “QDQLVESRVGLVQAGGSLRLSCAASGRIIPKYAMGWYRQAPGKERELVAAISSSGGSTYYADSVKGRFTISRDYAKNNVYLQMNSLNPEVTAVYYCNVDKATRYRYPGFDYWGQGTQVSVSS”, the “polyreactivity (PSR sort gate)” value was “high polyreactivity”.
In the case of “QDQLVESRVGLVQAGGSLRLSCAATGFTFLSYTMGWYIQAPCKERELLADNTRSGGSTYYADSVKGRFTISRDNAKNSVYLQMNSLKPEDTAVYFCAARYSYDRYRGSQQFYYWGQGTQVTVSS”, the “polyreactivity (PSR sort gate)” value is reported as “high polyreactivity”.
In the case of “QDQLVESVGGIVQAGGSLRLRCAASGFIYSRNAIGWYSEAPGKDREFVARIRWSVGSTYYADSVKGRFTISRENAKNTVYLMMTSLKPEVTAVYSCAADYYKRYKYLYDYWGQGTQVTVSS”, the “polyreactivity (PSR sort gate)” value is reported as “high polyreactivity”.
With “QDQLVESVGGLVQAGGSLRLSCAASGSIFIGYAMGWYRQAPGKERELVAAITSGGSTYADSVKGRFTISRDNAKNTVYLQMNSLKPEDTAVYYCAARFFLVTLDYCGQGTQVTVSS” the “polyreactivity (PSR sort gate)” value was “low polyreactivity”.
With “QDQLVESWGGLDKAGGSLLLICDASGSTFKFYTMGWYRQAPGKERELVATIDWSGVSTYYADSVKGRFTISRDNAKNTVYLQMNSLKPEDTAVYYCAARSLRLVGPYYYWGQGTQVTVSS” the “polyreactivity (PSR sort gate)” value was “high polyreactivity”.
With “QDQLVETLGGLVQAGASLRLSCAASGSIFGNNAMVWYRQEPGKERELVAAISGTGGTTYADSVKGRFTISRDNAKNTVYLQMNSLKPEDTAVYYWALRVWVRDYPFGYARYGYWGQGTQVTVSS” the “polyreactivity (PSR sort gate)” value was “low polyreactivity”.
For “QDQLVQSGGGLVQAGGSLRLSCAASAITFVIYSMGWYRQAPGKERELVAAIDGSDGSTYYADSVKGRFTISRDTAKNTVYLQMNSLKPEDTAVYYCNADTGGYYVTGSYLYNEYDYWGQGTQVTVSS”, the “polyreactivity (PSR sort gate)” value was “low polyreactivity”.
With “QDQLVQSGGGLVQAGGTLRLSCAASGRIIYVNAMGWYRQAPGKERDFVATITRGGSTYYADSVKGRFTISRDNAKNTVYFQMNSLQPEDTAVYYCATVRGGWKGRGHRNDYWGQGTQVTVSS” the “polyreactivity (PSR sort gate)” value was “high polyreactivity”.
In the case of “QDQQVESGGGLVQAGGSLRLSCAASGFTFRKKAKGWYRQAPGKERELVAAISASGGSTYYADSVKGRFTISRDNAKNTVYLQMNSLKPEDTDVFYCARDRSNAFNYWGQGTQVTVSS”, the “polyreactivity (PSR sort gate)” value is reported as “high polyreactivity”.
With “QEKHVESGGGLVQAGGSLLLSCAASGLTFYHNAMGWYRQAPGKERELVAAISSGGTTNYADSVKGRFTISRDNAKNTVYLQMNSLTPEDTAVYYCAARGWGPTRAYDYWGQGTQVTLSS” the “polyreactivity (PSR sort gate)” value was “high polyreactivity”.
For “QEKLQESGSGLVQAGGSLRLSCAASGNIFQDWVMRWYRQAPGKERELVAAISPGAITYYADSVKGRFTISRDNAKNTVYLQTNSLKPEDTAVYYCAAYYIVEYLHGYWGQGTRVTVSS”, the “polyreactivity (PSR sort gate)” value was “low polyreactivity”.
In the case of “QEQLLESGGGLLQAGGSLRLSCAASGSNFVSVTMGWYRQATGKELELVASIGRGSTTNHADSVKGRFTISRDNAKNIVYLLMNSLKPEDTAVYYCAALESYGKYHGYWGQGTQVTVSS”, the “polyreactivity (PSR sort gate)” value is reported as “low polyreactivity”.
With “QEQLQERGGGLVQAGGSQRLGCAASGNISDAGYMGLYRQAPGKERELVAAIAAGSNTNYADSVKGRFTISRDNAKNTVYLQMNSLKPEDTAVFYCAVASYALVQYEYWGQGTQVTVNS” the “polyreactivity (PSR sort gate)” value was “low polyreactivity”.
In the case of “QEQLQESGGCLVQAGGSLRLSCAASGSIFYVYGMGWFRQPPGKELELVAGINDGTNTNYADSVRGRFTISRDNAKNTVLLQMNSLKPEDTAVYYCAADGNCYQAHEYWGVGTQVTVSS”, the “polyreactivity (PSR sort gate)” value is reported as “high polyreactivity”.
For “QEQLQESGGCPVLAGGSLRLSCAASGTIFVRLDMGWYRQAPGKEREFVATIGSGSSTYYADSVKGSFTISRDNVKNTVYLQMNSLKPEDTAVYYCAVSAAEQSRHYYWDQGTQVTVSS”, the “polyreactivity (PSR sort gate)” value was “low polyreactivity”.
In the case of “QEQLQESGGGLVLAGGSLSLSCPESGYISWSFTMGWYRKAPGKEREFVAGITYGGITYYADSVKGRFTIRRDNGKNTVYLQLNSLKPEDTAVFYCAAPQTYPYVYVYWGQGTQVTVCS”, the “polyreactivity (PSR sort gate)” value is reported as “high polyreactivity”.
In the case of “QEQLQESGGGLVQAGDSPRLSCAESGYISARTGMGSYRQAPGKEREFVAGIASGTSTHYADSVKGRFTISRDNAKNAVYLQMNSLKPEDTAVYYCAKDYRYIFIYPYGWTRYDYWGQGTQVTVSS”, the “polyreactivity (PSR sort gate)” value is reported as “low polyreactivity”.
For “QEQLQESGGGLVQAGGDLRLSCAESGNIFRDYIMGWYRQAPGKEREFVAGIDRGANTNYADSVKGRFTISRDNAKNTVYLQMNSLKPEDTAVYYCAVHTAIVPDFIYWGQGTQVTVSS”, the “polyreactivity (PSR sort gate)” value was “low polyreactivity”.
For “QEQLQESGGGLVQAGGSLRLSCAASGNIYDADIMGWYRQAPGKERELVTSITDGGSTNYADSVKGRFTISRDNAKNTVYLQMNSLKPEDTAVYYCAAIAYPDIPTSFDYNSDYSYWGQGTQVTVSS”, the “polyreactivity (PSR sort gate)” value was “low polyreactivity”.
For “QEQLQESGGGLVQAGGSLRLSCAASGSISGSSTMGWYRQAPGKERELVASIAVGANTNYADSAKGRFTISRDNAKNTVYLQMNSLKPEDTAVYYCAVDYYIYYFHYWGQGTQVTVSS”, the “polyreactivity (PSR sort gate)” value was “high polyreactivity”.
In the case of “QEQLQESGGGLVQAGGSLRLSCAASGSISQAWYMGWYRQAPGKERELVAAINVGAITYYADSVKGRFSISRDNAKNTVYLPMNSLTPEDTAVYYCAVDQYSEAYYDYWGQGTQATVSS”, the “polyreactivity (PSR sort gate)” value is reported as “high polyreactivity”.
With “QEQLQESGGGLVQEGGSLRLSCAASGNISPPADMGWYRQAPGKERELVASIGTGGTTNYADSVKGRFTISRDNAKNTVYLQMNSLKPDDTAVYYCAAVRYEYNPYDYWGQGTQVTVSS” the “polyreactivity (PSR sort gate)” value was “low polyreactivity”.
For “QEQLQESGGGMVQVGGTLRLSCAATGTIFIYGFLGWNRQAPGKERELVASINLGGITNYADSVKGRFTISRDNAKNTVYLQMISLKPEDTAVYYCAAYLVTGQNYGYWGQGTQVTVSS”, the “polyreactivity (PSR sort gate)” value was “low polyreactivity”.
In the case of “QEQLQESGSGLVQAGGSLRLICAASRNIFQDWVMGWYRKEPGKEPELVAAISPGAITYYADSVKGRFTISRDNAKNTVYLQTNSLKPEDTAVYYCGAYYIVEYLHGYWGQGTRVTVSS”, the “polyreactivity (PSR sort gate)” value is reported as “low polyreactivity”.
For “QEQLVESAGGLVQAGGSLRLSCAASGSTFYRYAMGWNRQAPGKERELVAAITSSGGSTYYADSVKGRFTISRDNAKNTVYLQMNRLKPEDTAVYYWNAVRRRQSDYWGQGTQVTVSS”, the “polyreactivity (PSR sort gate)” value was “high polyreactivity”.

From the nanobody polyreactivity screen of Harvey et al. (2022)
